Earlier results on 1 substance are cited in paper PMC11806408.

The data set addresses BMP-10 GF growth factor (Homo sapiens) (UniProt O95393).

Chain of BMP-10 PD prodomain (O95393 22-316): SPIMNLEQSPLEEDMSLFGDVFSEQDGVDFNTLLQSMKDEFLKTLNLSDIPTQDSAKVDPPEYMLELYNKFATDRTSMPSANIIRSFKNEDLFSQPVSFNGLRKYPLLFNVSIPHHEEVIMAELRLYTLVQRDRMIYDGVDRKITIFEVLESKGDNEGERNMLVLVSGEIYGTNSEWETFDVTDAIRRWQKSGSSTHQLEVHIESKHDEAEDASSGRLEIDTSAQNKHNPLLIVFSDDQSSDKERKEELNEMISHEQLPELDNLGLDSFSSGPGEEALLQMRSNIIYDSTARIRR
Chain of BMP-10 GF growth factor (Homo sapiens) (O95393 317-424): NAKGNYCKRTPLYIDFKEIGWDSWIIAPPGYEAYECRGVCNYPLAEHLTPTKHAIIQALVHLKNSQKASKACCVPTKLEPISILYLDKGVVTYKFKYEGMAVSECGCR

Regarding “BMP-10 PD prodomain (from UniProt O95393)”, the Kd is 7 nM.
